Measurements published in patent US8796227B2, “Peptides for inhibiting chemokine binding to chemokine receptors” (Biokine Therapeutics Ltd., priority 2002, dated 2014).

Legend:
Human MCP-1 = target: T1, Human MCP-1 (Homo sapiens, UniProt P13500); experiment: ELISA analysis of the synthetic chemokine-binding peptide; conditions: chemokine-coated wells, specific binding = at least two fold of binding to control proteins (BSA, Actin, Fibronectin)
T1 construct: purchased PeproTech, Inc. 300-04
Protocol: (§1) Recombinant chemokines were ordered from PeproTech, Inc. (Rocky Hill, N.J., USA). Human SDF-1α (Cat. No. 300-28A), human MIG (Cat. No. 300-26) and human IL-8, (72 amino acids) (Cat. No. 200-08M), belong to the alpha-chemokines (C-X-C) family. Human MCP-1 (MCAF) (Cat. No. 300-04) and human Eotaxin (Cat No. 300-21) belong to the beta-chemokines (C-C family). All chemokines were prepared according to the company recommendations.
(§2) Peptides were synthesized in the Weizmann Institute of Science, Rehovot, Israel, in order to perform tests for characterization of their influence on the biological activity of the chemokines. The format of the various synthesized peptides was as follows: The cyclic peptides, ACX7CGGGSK-biotin-G and the linear peptides, X12GGGSK-biotin-G. The peptides were biotinylated on their C-termini; the biotin will serve as a detector during the following experiments. Each synthetic peptide was dissolved to concentration of 1 mg/ml (˜0.6 mM) in 4% DMSO (Dimethyl Sulphoxide, Sigma, Cat. # D-2650).
(§3) NUNC-Immuno™ MaxiSorp™ plates (Cat. No. 4-42404) were coated with the appropriate chemokine (0.1 ml/well, 0.1-1.0 μg/ml in 0.1 M NaHCO3, pH 8.6), overnight at 4° C. The plates were then blocked with 0.2 ml/well of blocking buffer (5 mg/ml BSA in 0.1 NaHCO3). Control wells were treated with blocking buffer alone, with no addition of target protein (chemokine). The plates were washed 6 times with PBST (0.1% Tween 20 in PBS), followed by incubation for 45 minutes at room temperature with 10-fold serial dilutions of individual synthetic peptides (10pg-10 μg) with 1% BSA (PBST-BSA)/well. After the plates were washed 6 times with PBST, the bound peptides were probed by HRP-SA Conjugate, diluted 1:10,000 to 1:20,000 in PBST-BSA, 0.1 ml/well for 45 minutes at room temperature. The target-bound synthetic peptides probed with HRP-SA were quantified by DAKO TMB one-step substrate system, followed by the addition of stop solution, HCl—H2SO4 mixture (0.1 ml/well) (1N HCl, 3N H2SO4). The results were analyzed by ELISA reader at OD450.
(§4) The present invention identifies chemokine-binding peptides with biological activity. The binding specificities of the various peptides to the chemokines were determined by screening against BSA, Actin and Fibronectin-coated wells as negative controls in parallel experiments. The binding level of the peptides to the various chemokines, which reached at least two fold of the binding level to the control proteins, was considered a specific binding.
(§5) The specific binding of the peptides was detected by screening methodology, using ELISA, as described in “Materials and Methods”, employing microplates coated with the various chemokines to be checked. The binding specificities of the various peptides to the various chemokines were determined by screening against BSA, Actin and Fibronectin-coated wells as negative controls in parallel experiments.
(§6) Again, the specificity of the binding, either to one chemokine or more, was established by comparing binding level with the control binding level to non-related proteins, (shown in the Figure as a broken line).

Eotaxin [1] = target: T2, Eotaxin (Homo sapiens, UniProt P51671); experiment: as above; conditions: chemokine-coated wells, specific binding = at least two fold of binding to control proteins (BSA, Actin, Fibronectin)
T2 construct: purchased PeproTech, Inc. 300-21
T2 sequence (P51671 24-97): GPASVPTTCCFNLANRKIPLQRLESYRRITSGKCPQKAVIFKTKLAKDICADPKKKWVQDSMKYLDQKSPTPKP
Protocol: as §1, §2, §3, §4, §5, §6

human IL-8 = target: T3, human IL-8 (Homo sapiens, UniProt P10145); experiment: as above; conditions: chemokine-coated wells, specific binding = at least two fold of binding to control proteins (BSA, Actin, Fibronectin)
T3 construct: human IL-8, (72 amino acids) (Cat. No. 200-08M); purchased PeproTech, Inc. 200-08M
T3 sequence (P10145 28-99 limits assumed): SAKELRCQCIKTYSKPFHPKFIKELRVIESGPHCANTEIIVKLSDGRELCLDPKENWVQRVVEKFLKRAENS
Protocol: as §1, §2, §3, §4, §5, §6

SDF-1α = target: T4, SDF-1α (Homo sapiens, UniProt P48061); experiment: as above; conditions: chemokine-coated wells, specific binding = at least two fold of binding to control proteins (BSA, Actin, Fibronectin)
T4 construct: purchased PeproTech, Inc. 300-28A
T4 sequence (P48061 22-89 limits assumed): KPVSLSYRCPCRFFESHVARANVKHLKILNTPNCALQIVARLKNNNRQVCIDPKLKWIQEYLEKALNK
Protocol: as §1, §2, §3, §4, §5, §6

IL-8 = target: T5, IL-8 (Homo sapiens, UniProt P10145); experiment: Biovalidation: laminar flow assay, chemokine and VCAM-1 activated adhesion of T cells; assay type: cell-based; design: key to Level of Antagonistic Effect / Level of Effect: + 20%; ++ 50%; +++ 100%; − No effect; conditions: VCAM-1; for Level of Antagonistic Effect: Chemokine checked IL-8, T cells, peptide 10 μg/ml; for Abolishment of the activity of IL-8: T cell adhesion under flow
T5 construct: human IL-8, (72 amino acids) (Cat. No. 200-08M); purchased PeproTech, Inc. 200-08M
T5 sequence (P10145 28-99): T3 sequence (P10145 28-99 limits assumed)

Eotaxin [2] = target: T2, Eotaxin; experiment: as above; assay type: cell-based; conditions: VCAM-1
MIG [3] = target: T6, MIG (Homo sapiens, UniProt Q07325); experiment: ELISA analysis of the synthetic chemokine-binding peptide; conditions: chemokine-coated wells, specific binding = at least two fold of binding to control proteins (BSA, Actin, Fibronectin)
T6 construct: purchased PeproTech, Inc. 300-26
T6 sequence (Q07325 23-125): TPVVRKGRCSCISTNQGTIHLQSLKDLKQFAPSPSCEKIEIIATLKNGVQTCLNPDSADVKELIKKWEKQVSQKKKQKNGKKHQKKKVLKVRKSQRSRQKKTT
Protocol: as §1, §2, §3, §4, §5, §6

[4] = test system: chemokines MCP-1, SDF-1α, MIG, Eotaxin and IL-8; experiment: ELISA binding to the panel of chemokines (chemokine not singled out); design: species or system human; conditions: five chemokines tested, control binding level = one fold
Protocol: as §1, §2, §3
The present invention identifies chemokine-binding peptides with biological activity. The binding specificities of the various peptides to the chemokines were determined by screening against BSA, Actin and Fibronectin-coated wells as negative controls in parallel experiments. […]
The specific binding of the peptides was detected by screening methodology, using ELISA, as described in “Materials and Methods”, employing microplates coated with the various chemokines to be checked. The binding specificities of the various peptides to the various chemokines were determined by screening against BSA, Actin and Fibronectin-coated wells as negative controls in parallel experiments. […]

MIG [5] = target: T6, MIG; experiment: Biovalidation: laminar flow assay, chemokine and VCAM-1 activated adhesion of T cells; assay type: cell-based; conditions: for Level of Antagonistic Effect: Chemokine checked MIG, T cells, peptide 10 μg/ml; for Level of Antagonistic Effect / Reduction of the activity of MIG: VCAM-1; for Reduction of the activity of MIG: T cell adhesion under flow
Protocol: 50 ml blood was added to 10 ml Dextran (Dextran T-500 6% w/v) in PBS (phosphate buffer saline), and 7 ml citrate buffer (25 g citrate, 8 g citric acid in 500 ml PBS). The solution was incubated for 30 min at 25° C. 10 ml Ficoll 1077 (Sigma) was added to the bottom of the tube. The tube was then centrifuged at 2,000 rpm for 30 min, at 18° C., (with the brake mode of the centrifuge off). The interphase was collected and washed twice with 8 ml PBS-5% FCS (fetal calf serum), followed by centrifugation at 1,400 rpm, for 5 min, at 18° C. The cells were re-suspended in PBS-5% FCS at a concentration less than 10^8/ml. 2 ml of the cell solution were applied and incubated for 45 min at 25° C. on a Perspex Nylon wool column, which was pre-soaked with PBS-5% FCS. Each column was washed with 8 ml PBS-5% FCS and the cells (T-cells and erythrocytes) were eluted by 50 ml of 5 mM EDTA in PBS. A red pellet was obtained by centrifugation at 1,400 rpm, at 4° C., for 5 min, with the brake on. In order to perform lysis of the erythrocytes, the red pellet was re-suspended in 5 ml lysis-buffer (155 mM NH4Cl, 10 mM KHCO3, 0.1 mM EDTA, X0.1PBS) for 4 min, followed by immediate addition of 50 ml of PBS-EDTA.
Following centrifugation at 1,400 rpm, at 4° C., for 5 min with brake on, the pellet was washed again with 50 ml PBS-EDTA and re-centrifuged under the same conditions. A white pellet was obtained and re-suspended in RPMI/10% FCS/L-glutamine/sodium pyruvate/antibiotics at a concentration of 3^X10^6 cells/ml. The cells were incubated for 2 h at 37° C., followed by collection of the non-adherent cells. The cells were ready for use in experiments after overnight incubation at 37° C. […]
Laminar flow assays were performed as follows. Polystyrene plates (B.D) were coated with soluble VCAM-1 at 10 μg/ml in the presence of 2 μg/ml HSA carrier. The plates were washed three times with PBS and blocked with HSA (20 μg/ml in PBS) for 2 hrs at room temperature. Alternatively, washed plates were coated with 10 μg/ml MIG chemokine in PBS for 30 min at room temperature, before being blocked with HSA. The plates were assembled as the lower wall of a parallel wall flow chamber and mounted on the stage of an inverted microscope. The peptide, as described previously, (10 μg/ml) was allowed to settle on the substrate coated chamber wall for 10 min, at 37° C. and then washed. T cells (5×10^6/ml, purity >98%) were suspended in binding buffer, perfused into the chamber and allowed to settle on the substrate coated chamber wall for 1 min, at 37° C. Flow was initiated and increased in 2 to 2.5 fold increments every 5 sec. generating controlled shear stresses on the wall. Cells were visualized in a 20× objective of an inverted phase-contrast Diaphot Microscope (Nikon, Japan) and photographed with a long integration LIS-700 CCD video camera (Applitech; Holon, Israel), connected to a video recorder (AG-6730 S-VHS, Panasonic, Japan). The number of adherent cells resisting detachment by the elevated shear forces was determined after each interval by analysis of videotaped cell images, and was expressed as the percent of originally settled cells. All adhesion experiments were performed at least three times on multiple test fields.

T1 sequence (P13500 24-99): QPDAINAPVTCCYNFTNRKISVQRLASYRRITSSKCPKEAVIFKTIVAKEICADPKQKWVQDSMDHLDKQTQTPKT

HSACHASLKHRC [BKT-P49]
Bound chemokines (at least): MCP-1 (Human MCP-1): MCP-1

LDYPIPQTVLHH [BKT-P46]
Bound chemokines (at least): MCP-1 (Human MCP-1): MCP-1

LGFDPTSTRFYT [BKT-P22]
Bound chemokines (at least): Eotaxin (Eotaxin [1]): bind and found to bind Eotaxin

LLADTTHHRPWP [BKT-P37]
Bound chemokines (at least): IL-8 (human IL-8): IL-8

SAGHIHEAHRPL [BKT-P39]
Bound chemokines (at least): Eotaxin (Eotaxin [1]): Eotaxin,
Bound chemokines (at least): SDF-1α (SDF-1α): SDF-1α
Bound chemokines (at least): IL-8 (human IL-8): IL-8
Level of Antagonistic Effect (IL-8): −
Abolishment of the activity of IL-8 (IL-8): no effect
Level of Antagonistic Effect (Eotaxin [2]; Chemokine checked Eotaxin, T cells, peptide 10 μg/ml): +++ (+++ 100%)
Blocking of the activity of Eotaxin (Eotaxin [2]; T cell adhesion under flow): 100%

SAISDHRAHRSH [BKT-P40]
Bound chemokines (at least): IL-8 (human IL-8): IL-8

SFWHHHSPRSPL [BKT-P31]
Bound chemokines (at least): Eotaxin (Eotaxin [1]): Eotaxin

SIFAHQTPTHKN [BKT-P3]
Bound chemokines (at least): MCP-1 (Human MCP-1): MCP-1
Bound chemokines (at least): MIG (MIG [3]): highest binding level and MIG
Bound chemokines (at least): IL-8 (human IL-8): IL-8
Binding to the various chemokines [4]: binds to all five chemokines tested
Level of Antagonistic Effect (MIG [5]): +++ (+++ 100%)
Percentage of arrested cells (MIG [5]; MIG plus peptide (FIG. 4), MIG alone about 25-30%, control = VCAM-1 alone): dramatically reduced
Reduction of the activity of MIG (MIG [5]): complete arrest
Level of Antagonistic Effect (IL-8): +++ (+++ 100%)
Abolishment of the activity of IL-8 (IL-8): complete arrest

SIPSHSIHSAKA [BKT-P2]
Bound chemokines (at least): Eotaxin (Eotaxin [1]): Eotaxin
Bound chemokines (at least): MCP-1 (Human MCP-1): MCP-1,
Bound chemokines (at least): IL-8 (human IL-8): IL-8
Level of Antagonistic Effect (MIG [5]): ++ (++ 50%)
Reduction of the activity of MIG (MIG [5]): about 50%

SVQTRPLFHSHF [BKT-P34]
Bound chemokines (at least): Eotaxin (Eotaxin [1]): Eotaxin

TRLVPSRYYHHP [BKT-P47]
Bound chemokines (at least): MCP-1 (Human MCP-1): MCP-1

VHTSLLQKHPLP [BKT-P26]
Bound chemokines (at least): MCP-1 (Human MCP-1): MCP-1

WSAHIVPYSHKP [BKT-P52]
Bound chemokines (at least): MCP-1 (Human MCP-1): MCP-1

YATQHNWRLKHE [BKT-P53]
Bound chemokines (at least): MCP-1 (Human MCP-1): MCP-1
